Results reported in patent publication US20240026407A1, “MODIFICATION OF SAPONINS” (GLAXOSMITHKLINE BIOLOGICALS SA, priority 2020, published 2024).
Changes are numbered by the printed parent chain. Names and notes keep the numbering of the source.

Key:
[1] = Example 10: derhamnosylation of saponins in crude bark extract (50%) using WT and engineered rhamnosidases R1 to R5; format: biochemical, Quillaja saponaria; conditions: 7 h, 50% CBE, 35 degC; for % Right Peak: starting CBE 26; for % Left Peak: starting CBE 30; for % Middle Peak: starting CBE 44
[2] = Example 9: screening of rhamnosidase variants for derhamnosylation of saponins in crude bark extract; format: biochemical, Quillaja saponaria; conditions: for Cumulative FIOP from WT: estimate
Procedure, shortened: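 His-tagged Kribbella flavida rhamnosidase variants expressed in colonies; cell lysates added at the indicated % loading (1% = 2 ul lysate per 200 ul reaction) to pH 6 Quillaja saponaria aqueous bark extract (≥2.80 mg/ml QS-21) at 75% or 80% volume. Quenched with acidified MeCN, analysed by UV HPLC; activity as % conversion of the QS-17-family Left Peak.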

[3] = rhamnosidase 0.31 mg/ml + glucosidase G5 0.5 mg/ml
[4] = rhamnosidase 0.31 mg/ml, no glucosidase
[5] = R4 round: 35 deg C, 18 h, lysate 0.125% v/v, CBE 75% v/v, 100 mM Sodium acetate pH 5.8
[6] = rhamnosidase 2.5 mg/ml + glucosidase G5 0.5 mg/ml
[7] = rhamnosidase 2.5 mg/ml, no glucosidase
[8] = R1 round: 20 deg C, 22 h, lysate 1.25% v/v, CBE 80% v/v, 100 mM Potassium phosphate pH 6

B1: Variant R4: engineered rhamnosidase polypeptide, variant of Kribbella flavida rhamnosidase SEQ ID No. 1017 (protein)
chain: MSFPAAPARLRFEHRTDPGPVLGIGTATPRLSWQVPTAPDDYRQAGYEVEIARGDAAPEQYTVDSADQVLVPWPGTPLAARESATVRVRVRGDGDWSQWSDPATVEAGLLSADDWTARFVSPRENAGHEAPAPLIGGVIDLPPDIAQARLYATAHGIYEPTLNGTRVGDEQLAPGWTAYEQRLRYQTYDVTDLVAPGENRLELLVGNGWYRGRMSFHNGHSLYGDRLAVLAQLEVTTATGEVKVLASDGTWTTRETNVLADDLYDGQHVDLRRTLGEPGPVDVLDADLSLLVAPDGPPVRVTDVLPAKAVTTSPAGKTLVDFGQNVVGRLRLRVRGGAAGDEIVLRHAEVLEDGELCVRPLRTAKATDSFVLAGPDEVTLEPTLTFHGFRYAEITGVPDLRAEDVEAVVVGSDLRRTGWFESSHPLLDRFHENVVWGMRGNFLDVPTDCPQRDERLGWTGDIQVFSPTASFLFDTAGFLTNWLADLIAEQHKDGSVPFVVPDVLRQPSPATAAWGDAATIVPWVLYERTGDAGLLARQLPSMRAWVDRMAGLAGDDLLWVGGFQFGDWLDPTAPPDDPFRAKADPDVLATAHLARSAEVVALAAEVVGAGELAREYAELAARVRQAFAAEYTTASGRVLSDAATNYALALQWALLPTEAQRKRAGERLADLVRTAGFRISTGFVGTPLMADALADSGHPDLAYRLLLETGCPSWLYAVTMDATTVWERWDSMLPDGSINPGQMTSFNHYALGAVADWMHRRVAGLAPGDPGYRRIVVDPLFTAHLTKASARHLTPYGEAAVAWSRSGGRVRLEVTVPVGARARVAVPGESAPVEVGHGTHEWTADDVYGETPPLPADATIRQLIDHEPSWTTLAAAATRTGIVADDAELAGRLERYLDHPATELVDAVSPRGFSPSAEALHAELDSVLGR
modifications: Seq ID No. 1017 with mutations A143P, L214M, G215S, G218N, K219G, G357C, G508S, G634A, Q921H
% change in Left Peak [1, 3]: −42%
% change in Middle Peak [1, 3]: −93%
% change in Right Peak [1, 3]: 306%
Cumulative Fold improvement in primary enzyme loading × time [1, 3]: 16
Fold improvement in primary enzyme loading × time [1, 3]: 2.0
% Right Peak [1, 3]: 79%
% Left Peak [1, 3]: 17%
% Middle Peak [1, 3]: 3%
% change in Left Peak [1, 4]: −45%
% change in Middle Peak [1, 4]: 22%
% change in Right Peak [1, 4]: 115%
Cumulative Fold improvement in primary enzyme loading × time [1, 4]: 16
Fold improvement in primary enzyme loading × time [1, 4]: 2.0
% Right Peak [1, 4]: 30%
% Left Peak [1, 4]: 16%
% Middle Peak [1, 4]: 54%
% conversion (Right peak/Left Peak) (−neg control) [2, 5]: 5.06%
Cumulative FIOP from WT [2, 5]: 22.1
Right Peak % ([2]; R4 round: 35 deg C, 18 h, lysate 0.125% v/v, CBE 75% v/v, 100 mM Sodium acetate pH 5.8, negative control 26.09): 27.00%
Left Peak % ([2]; R4 round: 35 deg C, 18 h, lysate 0.125% v/v, CBE 75% v/v, 100 mM Sodium acetate pH 5.8, negative control 29.62): 25.03%
Middle Peak % ([2]; R4 round: 35 deg C, 18 h, lysate 0.125% v/v, CBE 75% v/v, 100 mM Sodium acetate pH 5.8, negative control 44.29): 47.96%
% conversion (Right peak/Left Peak) ([2]; R4 round: 35 deg C, 18 h, lysate 0.125% v/v, CBE 75% v/v, 100 mM Sodium acetate pH 5.8, negative control 46.84): 51.89%
FIOP (% area increase variant/pos control) ([2]; R4 round: 35 deg C, 18 h, lysate 0.125% v/v, CBE 75% v/v, 100 mM Sodium acetate pH 5.8, positive control R3): 2.3
% conversion (Right peak/Left Peak) (−neg control) ([2]; R5 round: 35 deg C, 18 h, lysate 0.0625% v/v, CBE 75% v/v, 100 mM Sodium acetate pH 5.8): 2.02%
Right Peak % ([2]; R5 round: 35 deg C, 18 h, lysate 0.0625% v/v, CBE 75% v/v, 100 mM Sodium acetate pH 5.8, negative control 26.23): 26.79%
Left Peak % ([2]; R5 round: 35 deg C, 18 h, lysate 0.0625% v/v, CBE 75% v/v, 100 mM Sodium acetate pH 5.8, negative control 28.76): 27.09%
Middle Peak % ([2]; R5 round: 35 deg C, 18 h, lysate 0.0625% v/v, CBE 75% v/v, 100 mM Sodium acetate pH 5.8, negative control 45.00): 46.12%
% conversion (Right peak/Left Peak) ([2]; R5 round: 35 deg C, 18 h, lysate 0.0625% v/v, CBE 75% v/v, 100 mM Sodium acetate pH 5.8, negative control 47.70): 49.72%

B2: Variant R1: engineered rhamnosidase polypeptide, variant of Kribbella flavida rhamnosidase SEQ ID No. 1017 (protein)
chain: B1 chain with P143A, M214L, S215G, N218G, C357G, S508G, A634G, H921Q
modifications: Seq ID No. 1017 with mutation K219G
% change in Left Peak [1, 6]: −40%
% change in Middle Peak [1, 6]: −96%
% change in Right Peak [1, 6]: 309%
Cumulative Fold improvement in primary enzyme loading × time [1, 6]: 2
Fold improvement in primary enzyme loading × time [1, 6]: 2.0
% Right Peak [1, 6]: 80%
% Left Peak [1, 6]: 18%
% Middle Peak [1, 6]: 2%
% change in Left Peak [1, 7]: −35%
% change in Middle Peak [1, 7]: 17%
% change in Right Peak [1, 7]: 112%
Cumulative Fold improvement in primary enzyme loading × time [1, 7]: 2
Fold improvement in primary enzyme loading × time [1, 7]: 2.0
% Right Peak [1, 7]: 29%
% Left Peak [1, 7]: 19%
% Middle Peak [1, 7]: 51%
% conversion (Right peak/Left Peak) (−neg control) [2, 8]: 2.74%
Cumulative FIOP from WT [2, 8]: 1.7
Right Peak % ([2]; R1 round: 20 deg C, 22 h, lysate 1.25% v/v, CBE 80% v/v, 100 mM Potassium phosphate pH 6, negative control 26.35): 27.08%
Left Peak % ([2]; R1 round: 20 deg C, 22 h, lysate 1.25% v/v, CBE 80% v/v, 100 mM Potassium phosphate pH 6, negative control 29.36): 27.04%
Middle Peak % ([2]; R1 round: 20 deg C, 22 h, lysate 1.25% v/v, CBE 80% v/v, 100 mM Potassium phosphate pH 6, negative control 44.30): 45.89%
% conversion (Right peak/Left Peak) ([2]; R1 round: 20 deg C, 22 h, lysate 1.25% v/v, CBE 80% v/v, 100 mM Potassium phosphate pH 6, negative control 47.30): 50.04%
FIOP (% area increase variant/pos control) ([2]; R1 round: 20 deg C, 22 h, lysate 1.25% v/v, CBE 80% v/v, 100 mM Potassium phosphate pH 6, positive control WT): 1.7
